From publication PMC13137875
“And” between values parts separate entries of the source, which are not always exact repeats. Equal entries are not always repeated.

Columns and labels:
[1] = target: Rabbit skeletal muscle actin (G-actin) (rabbit) (UniProt P68135); test: SEC-SAXS
[2] = target: G-actin (Oryctolagus cuniculus) (UniProt P68135); conditions: cited from earlier work

| Substance | stoichiometry N [1] | Kd [2] |
| --- | --- | --- |
| R. bellii MBP-Sca2/6 (maltose-binding protein tagged passenger domain of Sca2/6) (domain or fragment) | 1 |  |
| Sca2 (from UniProt Q92JF7) |  | 0.02 µM and 0.2 µM |
